Measured values published in patent US20220259593A1, “CONTROL OF MAMMALIAN GENE DOSAGE USING CRISPR” (The Regents of the University of California, priority 2019, published 2022).

Test system: K562 CRISPRi cells
Assay: Constant region variant library pooled growth screen, K562
Format: cell-based, human
Conditions: sgRNA constant region variants
Text: We calculated relative activities for each targeting sequence:constant region pair by normalizing its phenotype to that of the targeting sequence paired with the unmodified constant region, identifying 409 constant region variants that on average conferred intermediate activity (0.1-0.9, FIG. 5B). Ten variants selected for individual evaluation also mediated intermediate levels of mRNA knockdown (FIG. 6B). Mapping the activities of constant region variants with single base substitutions onto the structure recapitulated known relationships between constant region structure and function (FIG. 5C).
The sequences in the library of modified constant regions were derived from the sgRNA (F+E) optimized sequence (23) modified to include a BlpI site (15). Each modified constant region was paired with 36 sgRNA targeting sequences (3 sgRNAs targeting each of 10 essential genes and six non-targeting negative control sgRNAs). The cloning strategy (described below) allowed the mutation of most positions in the sgRNA constant region. A variety of modifications were made, including substitutions of all single bases not in the BlpI restriction site (which is used for cloning), double substitutions including all substitutions at base-paired position pairs not before or in the BlpI site, and a variety of triple, quadruple, and sextuple substitutions, including base-pair-preserving substitutions at adjacent base-pairs.
The library was ordered and cloned in two parts. One part consisted of ˜100 modifications to the eight bases upstream of the BlpI restriction site. Constant region variants with mutations in this section were paired with each of the 36 targeting sequences, ordered as a pooled oligonucleotide library (Twist Biosciences), and cloned into pCRISPRia-v2 as described above. The second part consisted of ˜900 modifications to the 71 bases downstream of the BlpI restriction site. This part was cloned in two steps. First, all 36 targeting sequences were individually cloned into pCRISPRia-v2 as described above. The vectors were then pooled at an equimolar ratio and digested with BlpI (NEB) and XhoI (NEB). The modified constant region variants were ordered as a pooled oligonucleotide library (Twist Biosciences), PCR amplified with Phusion polymerase (NEB), digested with BlpI (NEB) and XhoI (NEB), and ligated into the digested vector pool, in a manner identical to previously published protocols and as described above, except for the different restriction enzymes.
Screens with the compact mismatched sgRNA library and the constant region library were conducted largely as described above, with smaller modifications during the screening procedure and an updated sequencing library preparation protocol. Briefly, the libraries were transduced in duplicate into K562 CRISPRi (both libraries) or HeLa CRISPRi cells (compact mismatched sgRNA library) as described above. K562 replicates were maintained separately in 0.15 to 0.3 L of RPMI-1640 in 0.3 L spinner flasks for the course of the screen. HeLa replicates were maintained in sets of ten 15-cm plates. Cells were selected with puromycin as described above (K562: 1 day of 0.75 μg/mL and 1 day of 0.85 μg/mL; HeLa: 2 days of 0.8 μg/mL and 1 day of 1 μg/mL). The remainder of the screen was carried out at >1000× library coverage (K562 compact mismatched sgRNA library: >2000×; HeLa compact mismatched sgRNA library: >1000×; K562 constant region library: >2000×). Multiple samples were harvested after 4 to 8 days of growth. For the drug screen, 10 μM lovastatin (ApexBio) or an equivalent volume of DMSO (vehicle) was added to flasks at t=0, and 3 days later cells were pelleted and re-suspended in fresh medium. Lovastatin (12 μM) or DMSO was again added after 5 and 9 days of growth, with media exchanges 3 days after drug supplementation. Multiple samples were harvested after 4 to 8 days for the K562 and HeLa growth screens. […]

[1] = activity relative to the original, un-modified constant region cr995
[2] = activity relative to the un-modified constant region cr995

B1: cr275 (nucleic acid)
guide: GTTTAAGAGCTAAGCTGGAAACAGCATAGCAAGTTTAAATAAGGCTAGTCCGTTATCAACCTGAAAAGGTGGGACAGAGTCTGTCCT
modifications: listed as DNA, chemistry not fully specified
Mean relative activity [1]: 1.06

B2: cr909 (nucleic acid)
guide: GTTTAAGAGCTAAGCTGGAAACAGCATATCAAGTTTAAATAAGGCTAGTCCGTGATCAACTTGTAAAAGTGGCACCGAGTCGGTGCT
modifications: listed as DNA, chemistry not fully specified
Mean relative activity [1]: 0.8864

B3: cr409 (nucleic acid)
guide: GTTTAAGAGCTAAGCTGGAAAGAGCATAGCAAGTTTAAATAAGGCTAGTCCGTTATCAACTTGAAAAAGTGGCACCGAGTCGGTGCT
modifications: listed as DNA, chemistry not fully specified
Mean relative activity [2]: 0.9158

B4: cr777 (nucleic acid)
guide: GTTTAAGAGCTAAGCTGGAAACAGCATAGCAAGTTTAAATAAGGCTAGTCCGGTATCAACTTGAAAAAGTGGCACCGAGTCGGTGCT
modifications: listed as DNA, chemistry not fully specified
Mean relative activity [2]: 0.9022

B5: cr702 (nucleic acid)
guide: GTTTAAGAGCTAAGCTGGAAACAGCATAGCAAGTTTAAATAAGGCTAGTCCGTTATCAACTTGAAAAAGTGCCACCGAGTCGGTGCT
modifications: listed as DNA, chemistry not fully specified
Mean relative activity [1]: 0.8977

B6: cr910 (nucleic acid)
guide: GTTTAAGAGCTAAGCTGGAAACAGCATAGCAAGTTTAAATAAGGCTAGTCCGTTATCAACTTGAAAAAGTGGAACGGAGTCCGTTCT
modifications: listed as DNA, chemistry not fully specified
Mean relative activity [2]: 0.9171

B7: cr206 (nucleic acid)
guide: GTTTAAGAGCTAAGCTGGAAACAGCATAGCAAGTTTAAATAAGGCTAGTCCGTTATCAACCTGAAAAAGTGGCACCGACTCGGTGCT
modifications: listed as DNA, chemistry not fully specified
Mean relative activity [1]: 0.8946

B8: cr806 (nucleic acid)
guide: GTTTAAGAGCTAAGCTGGAAACAGCATAGCAAGTTTAAATAGGGCTAGTCCGTTATCAACTTGAAAAAGTGGCACCGAGTCGGTGCT
modifications: listed as DNA, chemistry not fully specified
Mean relative activity [1]: 0.8861

B9: cr705 (nucleic acid)
guide: GTTTAAGAGCTAAGCTGGAAACAGCATAGCAAGTTTAAATAAGGCTAGTCCGTTATCAACTTGAAAAAGTGGCACGGAGTCCGTGCT
modifications: listed as DNA, chemistry not fully specified
Mean relative activity [1]: 0.8901

B10: cr503 (nucleic acid)
guide: GTTTAAGAGCTAAGCTGGAAACAGCATAGCAAGTTTAAATAAGGCTAGTCCGTTATCAACTTGAAAAAGTGGCACCGAGTCGGGGCT
modifications: listed as DNA, chemistry not fully specified
Mean relative activity [2]: 0.9079

B11: cr141 (nucleic acid)
guide: GTTTAAGAGCTAAGCTGGAAACAGCATAGCAAGTTTAAATAAGGCCAGTCCGTTATCAACTTGAGAAAGTGGCACCGAGTCGGTGCT
modifications: listed as DNA, chemistry not fully specified
Mean relative activity [2]: 0.9018

B12: cr863 (nucleic acid)
guide: GTTTAAGAGCTAAGCTGGAAACCGCATAGCAAGTTTAAATAAGGCTAGTCCGTTATCAACTTGAAAAAGTGGCACCGAGTCGGTGCT
modifications: listed as DNA, chemistry not fully specified
Mean relative activity [2]: 0.9031

B13: cr869 (nucleic acid)
guide: GTTTAAGAGCTAAGCTGGAAACAGCATAGCAAGTTTAAATAAGGCTAGTCCGTTATCAACTTGAAAAAGAGGCACCGAGTCGGTGCT
modifications: listed as DNA, chemistry not fully specified
Mean relative activity [1]: 0.8861

B14: cr387 (nucleic acid)
guide: GTTTAAGAGCTAAGCTGGAAACAGCATAGCAAGTTTAAATAAGGCTCGTCCGTTATCAACTTGAAAAAGTGGCACCGAGTCGGTGCT
modifications: listed as DNA, chemistry not fully specified
Mean relative activity [2]: 0.9094

B15: cr694 (nucleic acid)
guide: GTTTAAGAGCTAAGCTGGAAACAGCATAGCAAGTTTAAATAAGGCTAGTCCGGTATCAACTTGTAAAAGTGGCACCGAGTCGGTGCT
modifications: listed as DNA, chemistry not fully specified
Mean relative activity [1]: 0.8963

B16: cr402 (nucleic acid)
guide: GTTTAAGAGCTAAGCTGGAAACTGCATAGCAAGTTTAAATAAGGCTAGTCCGTTATCAACTTGAAAAAGTGGCACCGAGTCGGTGCT
modifications: listed as DNA, chemistry not fully specified
Mean relative activity [1]: 0.8977

B17: cr256 (nucleic acid)
guide: GTTTAAGAGCTAAGCTGGAAACAGCATAACAAGTTTAAATAAGGCTAGTCCGTTATCAACTTGAAAAAGTGGCACCGAGTCGGTGCT
modifications: listed as DNA, chemistry not fully specified
Mean relative activity [2]: 0.9023

B18: cr626 (nucleic acid)
guide: GTTTAAGAGCTAAGCTGGAAACAGCATAGCAAGTTTAAATAAGGCTAGTCCGTTATCAACTTGACAAAGTGGCACCGCGTCGGTGCT
modifications: listed as DNA, chemistry not fully specified
Mean relative activity [2]: 0.9006

B19: cr367 (nucleic acid)
guide: GTTTAAGAGCTAAGCTGGAAACAGCATAGCAAGTTTAAATAAGACTAGTTCGTTATCAACTCGAAAGAGTGGTACCGAGTCGGTACT
modifications: listed as DNA, chemistry not fully specified
Mean relative activity [2]: 0.8998

B20: cr520 (nucleic acid)
guide: GTTTAAGAGCTAAGCTGGAAACAGCATAGCAAGTTTAAATAAGGCTAGTCCGATATCAACTTGCAAAAGTGGCACCGAGTCGGTGCT
modifications: listed as DNA, chemistry not fully specified
Mean relative activity [1]: 0.8874

B21: cr488 (nucleic acid)
guide: GTTTAAGAGCTAAGCTGGAAACAGCATAGCAAGTTTAAATAAGGCTAGTCCGTTATCAACTTGAAAAAGTGGGACCGAGTCGGTCCT
modifications: listed as DNA, chemistry not fully specified
Mean relative activity [1]: 1.06

B22: cr013 (nucleic acid)
guide: GTTTGAGAGCTAAGCTGGAAACAGCATAGCAAGTTTAAATAAGGCTAGTCCGTTATCAACTTGAAAAAGTGGCACCGAGTCGGTGCT
modifications: listed as DNA, chemistry not fully specified
Mean relative activity [1]: 0.8907

B23: cr123 (nucleic acid)
guide: GTTTAAGAGCTAAGCTGGAAACAGCATAGCAAGTTTAAATAAGGCTAGTCCGTTATCAACGTGAAAAAGTGGCACCGAGTCGGTGCT
modifications: listed as DNA, chemistry not fully specified
Mean relative activity [1]: 0.8871

B24: cr977 (nucleic acid)
guide: GTTTAAGAGCTAAGCTGGAAACAGCATAGCAAGTTTAAATAAGGCTAGTCCGTTATCATCTTGAAAAAGAGGCACCAAGTTGGTGCT
modifications: listed as DNA, chemistry not fully specified
Mean relative activity [2]: 0.9127
